The record followed here is PMC3749136 (2013).

The target in one assay is T1, TYK2 JH1 domain (UniProt P29597 897-1176).
T1 chain: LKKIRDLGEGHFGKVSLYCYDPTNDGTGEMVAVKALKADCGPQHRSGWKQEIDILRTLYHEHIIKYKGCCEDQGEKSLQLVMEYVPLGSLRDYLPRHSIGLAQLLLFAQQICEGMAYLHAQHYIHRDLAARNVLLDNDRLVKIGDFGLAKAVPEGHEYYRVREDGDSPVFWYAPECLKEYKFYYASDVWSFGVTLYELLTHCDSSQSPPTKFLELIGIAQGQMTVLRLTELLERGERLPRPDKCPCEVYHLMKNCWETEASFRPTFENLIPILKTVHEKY
Briefly: SPR. (Surface plasmon resonance follows binding to a sensor surface in real time, without labels.)

Another assay addresses JAK3 JH1 domain (UniProt P52333 822-1111). Briefly: SPR.

As usually defined, the Kd is the equilibrium constant for the complex coming apart. A higher Kd goes with weaker binding.

Chain of JAK3 JH1 domain (P52333 822-1111): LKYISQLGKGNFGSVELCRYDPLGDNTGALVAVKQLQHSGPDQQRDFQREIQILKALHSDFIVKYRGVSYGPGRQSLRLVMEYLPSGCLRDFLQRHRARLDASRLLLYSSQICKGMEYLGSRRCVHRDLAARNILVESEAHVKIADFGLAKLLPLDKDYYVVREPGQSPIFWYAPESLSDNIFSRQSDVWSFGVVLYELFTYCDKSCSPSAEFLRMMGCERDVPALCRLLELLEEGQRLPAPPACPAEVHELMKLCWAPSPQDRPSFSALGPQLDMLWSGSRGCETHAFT

B1: SOCS5 175–244 fragment (domain or fragment)
chain: RSLRQRLQDTVGLCFPMRTYSKQSKPLFSNKRKIHLSELMLEKCPFPAGSDLAQKWHLIKQHTAPVSPHS
For the molecule B1, the Kd was 1200 nM with TYK2 JH1 domain and 2100 nM with JAK3 JH1 domain.
